Measurements: US20170043011A1

Target: human CD81 on Hep3B hepatoma cells (human) (UniProt P60033)
Test: cell-based or functional assay

Sequence of UniProt P60033 (P60033 whole entry): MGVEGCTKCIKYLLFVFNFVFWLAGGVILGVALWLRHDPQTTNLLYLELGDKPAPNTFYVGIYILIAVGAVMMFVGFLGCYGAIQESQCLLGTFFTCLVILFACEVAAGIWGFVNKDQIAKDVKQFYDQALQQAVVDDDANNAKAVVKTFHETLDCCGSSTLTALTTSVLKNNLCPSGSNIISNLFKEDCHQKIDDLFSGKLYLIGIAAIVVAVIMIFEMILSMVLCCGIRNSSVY

Substance: mouse anti-human CD81 monoclonal antibody, clone 1.3.3.22 (Santa Cruz Biotechnology)
- fold decrease in infectivity of Bole1a HCVpp on Hep3B cells (luciferase RLU): 10 fold
